Laboratory results reported in patent US20250339569A1 (3B PHARMACEUTICALS, published 2025).
Starred links: 1 amine or outer side, 2 acyl side, 3 side chain; linkers in the order of their positions; H or OH if unused. Positions of bridges follow the written chain, without caps; N, C: chain ends. Non-standard residues stand in square brackets, D forms with d. Primed or numbered codes have the meaning given here. No end group written: not given here. *: point of attachment. Aph(SaPr) = 4-amino-L-phenylalanine, ring amine acylated by 3-sulfamoylpropanoic acid, NS(=O)(=O)CCC(=O)Nc1ccc(C[C@H](N[*:1])C(=O)[*:2])cc1; Aph(2Thz) = 4-aminophenylalanine with 1,3-thiazole-2-carbonyl on the ring amine, O=C(Nc1ccc(C[C@H](N[*:1])C(=O)[*:2])cc1)c1nccs1; Aph(iNic) = 4-aminophenylalanine with isonicotinoyl on the ring amine, O=C(Nc1ccc(C[C@H](N[*:1])C(=O)[*:2])cc1)c1ccncc1; Aph(Bz) = 4-aminophenylalanine with benzoyl on the ring amine, O=C(Nc1ccc(C[C@H](N[*:1])C(=O)[*:2])cc1)c1ccccc1; Ttds = 1,13-diamino-4,7,10-trioxatridecan-succinamic acid spacer, NCCCOCCOCCOCCCNC(=O)CCC(=O)*; Phe(3-NHCO(CH2)3SO2NH2) = N[C@@H](Cc1cccc(NC(=O)CCCS(N)(=O)=O)c1)C(=O)O; APAc″ = 2-(4-(amino)piperidin-1-yl)acetic acid, NC1CCN(CC(=O)*)CC1; DOTA = O=C(O)CN1CCN(CC(=O)O)CCN(CC(=O)*)CCN(CC(=O)O)CC1; Pyridine(3,5-bisCH2) = c1ncc(C[*:2])cc1C[*:1]; PPAc = 4-carboxymethyl piperazine linker; mXylylene = c1cc(C[*:1])cc(C[*:2])c1; 3Amb = NCc1cccc(C(=O)O)c1; Dab = NCC[C@H](N)C(=O)O; Thp = NC1(C(=O)O)CCOCC1; Cmp = not defined here; Dap = NC[C@H](N)C(=O)O; Rni = not defined here

B1: 3BP-4338 (peptide)
peptide: DCE[dP]DWLTW[Dap]C-NH2
modifications: lactam 1-10; linker 2-11 via mXylylene; not fully specified (N-terminus); also: indium complexed by DOTA
B2: 3BP-4260 (peptide)
peptide: {DOTA-3Amb}-DCE[dP]DWLTW[Dap]C-NH2
modifications: lactam 10-1; linker 2-11 via mXylylene
SMILES: CC(C)C[C@@H]1NC(=O)[C@H](Cc2c[nH]c3ccccc23)NC(=O)[C@H](CC(=O)O)NC(=O)[C@H]2CCCN2C(=O)[C@H](CCC(=O)O)NC(=O)[C@@H]2CSCc3cccc(c3)CSC[C@@H](C(N)=O)NC(=O)[C@H](CNC(=O)C[C@H](NC(=O)c3cccc(CNC(=O)CN4CCN(CC(=O)O)CCN(CC(=O)O)CCN(CC(=O)O)CC4)c3)C(=O)N2)NC(=O)[C@H](Cc2c[nH]c3ccccc23)NC(=O)[C@H]([C@@H](C)O)NC1=O
B3: 3BP-4505 (peptide)
peptide: {DOTA}-ECE[dP]D[Aph(SaPr)]LTW[Dap]C-NH2
modifications: lactam 1-10; linker 2-11 via mXylylene
SMILES: CC(C)C[C@@H]1NC(=O)[C@H](Cc2ccc(NC(=O)CCS(N)(=O)=O)cc2)NC(=O)[C@H](CC(=O)O)NC(=O)[C@H]2CCCN2C(=O)[C@H](CCC(=O)O)NC(=O)[C@@H]2CSCc3cccc(c3)CSC[C@@H](C(N)=O)NC(=O)[C@H](CNC(=O)CC[C@H](NC(=O)CN3CCN(CC(=O)O)CCN(CC(=O)O)CCN(CC(=O)O)CC3)C(=O)N2)NC(=O)[C@H](Cc2c[nH]c3ccccc23)NC(=O)[C@H]([C@@H](C)O)NC1=O
B4: 3BP-3962 (peptide)
peptide: Ac-VYCE[dP]KW[Thp]EWSC-NH2
modifications: linker 3-12 via mXylylene; lactam 6-9
SMILES: CC(=O)N[C@H](C(=O)N[C@@H](Cc1ccc(O)cc1)C(=O)N[C@H]1CSCc2cccc(c2)CSC[C@@H](C(N)=O)NC(=O)[C@H](CO)NC(=O)[C@H](Cc2c[nH]c3ccccc23)NC(=O)[C@@H]2CCC(=O)NCCCC[C@H](NC(=O)[C@H]3CCCN3C(=O)[C@H](CCC(=O)O)NC1=O)C(=O)N[C@@H](Cc1c[nH]c3ccccc13)C(=O)NC1(CCOCC1)C(=O)N2)C(C)C
B5: 3BP-4050 (peptide)
peptide: Ac-VYCE[dP][Dab]WLDWSC-NH2
modifications: linker 3-12 via mXylylene; lactam 6-9
SMILES: CC(=O)N[C@H](C(=O)N[C@@H](Cc1ccc(O)cc1)C(=O)N[C@H]1CSCc2cccc(c2)CSC[C@@H](C(N)=O)NC(=O)[C@H](CO)NC(=O)[C@H](Cc2c[nH]c3ccccc23)NC(=O)[C@@H]2CC(=O)NCC[C@H](NC(=O)[C@H]3CCCN3C(=O)[C@H](CCC(=O)O)NC1=O)C(=O)N[C@@H](Cc1c[nH]c3ccccc13)C(=O)N[C@@H](CC(C)C)C(=O)N2)C(C)C
B6: 3BP-3899 (peptide)
peptide: Ac-VYCE[dP]DWLKWSC-NH2
modifications: linker 3-12 via mXylylene; lactam 4-9
SMILES: CC(=O)N[C@H](C(=O)N[C@@H](Cc1ccc(O)cc1)C(=O)N[C@H]1CSCc2cccc(c2)CSC[C@@H](C(N)=O)NC(=O)[C@H](CO)NC(=O)[C@H](Cc2c[nH]c3ccccc23)NC(=O)[C@@H]2CCCCNC(=O)CC[C@H](NC1=O)C(=O)N1CCC[C@@H]1C(=O)N[C@@H](CC(=O)O)C(=O)N[C@@H](Cc1c[nH]c3ccccc13)C(=O)N[C@@H](CC(C)C)C(=O)N2)C(C)C
B7: 3BP-4043 (peptide)
peptide: Ac-VYCE[dP]KWL[dD]WSC-NH2
modifications: linker 3-12 via mXylylene; lactam 6-9
SMILES: CC(=O)N[C@H](C(=O)N[C@@H](Cc1ccc(O)cc1)C(=O)N[C@H]1CSCc2cccc(c2)CSC[C@@H](C(N)=O)NC(=O)[C@H](CO)NC(=O)[C@H](Cc2c[nH]c3ccccc23)NC(=O)[C@H]2CC(=O)NCCCC[C@H](NC(=O)[C@H]3CCCN3C(=O)[C@H](CCC(=O)O)NC1=O)C(=O)N[C@@H](Cc1c[nH]c3ccccc13)C(=O)N[C@@H](CC(C)C)C(=O)N2)C(C)C

target: T1, Fc-fusion protein of human carbonic anhydrase IX (human, UniProt Q16790 38-414); assay: SPR, captured hCAIX-Fc; t1/2 category D: <=2.0 min
Procedure: Stock solutions of test compounds were prepared by dissolving each compound in DMSO. DMSO stock solution were diluted 1:1000 in Running Buffer without DMSO. […] SPR binding analyses were performed in Single Cycle Kinetic (SCK) mode at 25° C.
For each test compound, SPR raw data in the form of resonance units (RU) were plotted as sensorgrams using the Biacore™ T200 control software. The signal from the blank sensorgram was subtracted from that of the test compound sensorgram (blank corrected). The blank corrected sensorgram was corrected for baseline drift by subtracting the sensorgram of a SCK run without the test compound (running buffer only). […] Raw data and fit results were imported as text files in IDBS. The pKD value (negative decadic logarithm of dissociation constant) was calculated in the IDBS excel template.

| Binder | t1/2 (half-life of the complex, SPR) [min] |
| --- | --- |
| B1 | ≤ 2 |
| B2 | ≤ 2 |
| {DOTA-PPAc}-DCE[dP]DWLTW[Dap]C-NH2 (lactam 10-1; linker 2-11 via mXylylene) [3BP-4255] | ≤ 2 |
| {DOTA-Cmp}-DCE[dP]DWLTW[Dap]C-NH2 (lactam 10-1; linker 2-11 via mXylylene; reading uncertain) [3BP-4259] | ≤ 2 |
| {DOTA-APAc″}-CE[dP]DWLTWSC-NH2 (linker 1-10 via mXylylene) [3BP-3858] | ≤ 2 |
| {DOTA-Ttds}-VYCEGDWLTWQC-NH2 (linker 3-12 via mXylylene) [3BP-2959] | ≤ 2 |

target: T1, Fc-fusion protein of human carbonic …; assay: SPR, captured hCAIX-Fc; pKD category A: >8.0

| Binder | pKD [pkd] |
| --- | --- |
| B1 | > 8 |
| {DOTA-Rni}-YCE[dP]D[Phe(3-NHCO(CH2)3SO2NH2)]LTWSC-NH2 (linker 2-11 via mXylylene; reading uncertain) [3BP-4455] | > 8 |
| B2 | > 8 |
| {DOTA-PPAc}-ECE[dP]D[Phe(3-NHCO(CH2)3SO2NH2)]LTW[Dap]C-NH2 (lactam 1-10; linker 2-11 via mXylylene) [3BP-4502] | > 8 |
| {DOTA-PPAc}-DCE[dP]DWLTW[Dap]C-NH2 (lactam 10-1; linker 2-11 via mXylylene) [3BP-4255] | > 8 |
| {DOTA-Cmp}-DCE[dP]DWLTW[Dap]C-NH2 (lactam 10-1; linker 2-11 via mXylylene; reading uncertain) [3BP-4259] | > 8 |
| {DOTA-APAc″}-CE[dP]DWLTWSC-NH2 (linker 1-10 via mXylylene) [3BP-3858] | > 8 |
| {DOTA-Ttds}-VYCEGDWLTWQC-NH2 (linker 3-12 via mXylylene) [3BP-2959] | > 8 |
| {DOTA-PPAc}-ECE[dP]D[Aph(SaPr)]LTW[Dap]C-NH2 (lactam 1-10; linker 2-11 via mXylylene) [3BP-4504] | > 8 |
| B3 | > 8 |

target: T1, Fc-fusion protein of human carbonic …; assay: SPR, captured hCAIX-Fc; t1/2 category A: >15.0 min

| Binder | t1/2 (half-life of the complex, SPR) [min] |
| --- | --- |
| {DOTA-Rni}-YCE[dP]D[Phe(3-NHCO(CH2)3SO2NH2)]LTWSC-NH2 (linker 2-11 via mXylylene; reading uncertain) [3BP-4455] | > 15 |
| {DOTA-PPAc}-ECE[dP]D[Phe(3-NHCO(CH2)3SO2NH2)]LTW[Dap]C-NH2 (lactam 1-10; linker 2-11 via mXylylene) [3BP-4502] | > 15 |
| {DOTA-PPAc}-ECE[dP]D[Aph(SaPr)]LTW[Dap]C-NH2 (lactam 1-10; linker 2-11 via mXylylene) [3BP-4504] | > 15 |
| B3 | > 15 |

target: human carbonic anhydrase IX (CAIX) (human, UniProt Q16790 38-459); assay: FACS competition, HT-29 cells, tracer 3BP-2776; pIC50 category A: >8.0
Procedure: (§1) CAIX-expressing human HT-29 colorectal cancer cells (DSMZ, RRID: CVCL_0320) were cultured in McCoys's 5A modified medium (Biochrom, #F1015) including 10% fetal calf serum (FCS), 2 mM L-glutamine, 100 U/ml penicillin and 100 μg/mL streptomycin. Cells were detached with Accutase (Biolegend, #423201) and washed in FACS buffer (PBS including 1% FCS). Cells were diluted in FACS buffer to a final concentration of 500.000 cells per ml. 200 μL of the cell suspension were transferred to a u-shaped non-binding 96-well plate (Greiner) and cells were washed in ice-cold FACS buffer.
(§2) When biotinylated compounds were used an additional incubation step with 1 μg/mL APC-Streptavidin (Miltenyi; #130-106-791) in 50 μL FACS buffer for 30 minutes on ice was performed.
(§3) Cells were washed twice with ice-cold FACS buffer and analyzed in an Attune NxT flow cytometer (Thermo Fisher). Median fluorescence intensities (MFI) of the APC/Cy5-channel were calculated by Attune NxT software.

| Binder | pIC50 [pic50] |
| --- | --- |
| {DOTA-Rni}-YCE[dP]D[Phe(3-NHCO(CH2)3SO2NH2)]LTWSC-NH2 (linker 2-11 via mXylylene; reading uncertain) [3BP-4455] | > 8 |
| {DOTA-PPAc}-ECE[dP]D[Phe(3-NHCO(CH2)3SO2NH2)]LTW[Dap]C-NH2 (lactam 1-10; linker 2-11 via mXylylene) [3BP-4502] | > 8 |
| {DOTA-PPAc}-ECE[dP]D[Aph(SaPr)]LTW[Dap]C-NH2 (lactam 1-10; linker 2-11 via mXylylene) [3BP-4504] | > 8 |
| B3 | > 8 |

target: human carbonic anhydrase 9 (CAIX) (human, UniProt Q16790 38-459); assay: FACS competition on HT-29 cells, competitor tracer 3BP-2776; category C = pIC50 6.1-7.0
Procedure: as §1, §2, §3

| Binder | pIC50 [pic50] |
| --- | --- |
| {DOTA-APAc″}-VYCE[dP]D[Aph(iNic)]LTWSC-NH2 (linker 3-12 via mXylylene) [3BP-4183] | 6.1 to 7 |
| B4 | 6.1 to 7 |
| B5 | 6.1 to 7 |
| {DOTA-APAc″}-VYCE[dP]D[Aph(Bz)]LTWSC-NH2 (linker 3-12 via mXylylene) [3BP-4171] | 6.1 to 7 |
| {DOTA-APAc″}-VYCE[dP]DWLTWSC-NH2 (linker 3-12 via Pyridine(3,5-bisCH2)) [3BP-4141] | 6.1 to 7 |
| {DOTA-APAc″}-VYCE[dP]D[Aph(2Thz)]LTWSC-NH2 (linker 3-12 via mXylylene) [3BP-4180] | 6.1 to 7 |
| B6 | 6.1 to 7 |
| B7 | 6.1 to 7 |
